Test results as given in US20110091971A1, “Differentiation of Pluripotent Stem Cells” (priority 2008, published 2011).
Where a chain is given by its changes, count along the chain named.

B1: ACTN7: activin A variant peptide, SEQ ID 8 (protein)
chain: GLECDGKVNYCCKKQHFVSFKDIGWNDWIIAPSGYHANSCSGLCPSHIAGTSGSSLSFHSTVINHYRMRGHSPFSQMGSCCIPTKLRPMSMLYYDDGQNIIKKDIQNMIVEECGCS
B2: ACTN20: activin A variant peptide, SEQ ID 21 (protein)
chain: B1 chain with Y10L, H16N, S39K, S41G, S75A, S79A
B3: ACTN19: activin A variant peptide, SEQ ID 20 (protein)
chain: B1 chain with Y10L, H16D, S39K, S41G, L43K, S75A, Q76N
B4: ACTN9: activin A variant peptide, SEQ ID 10 (protein)
chain: B1 chain with H16D, S39K, S41T, L43K, S75A, Q76D, M77L, S79A
B5: ACTN17: activin A variant peptide, SEQ ID 18 (protein)
chain: B1 chain with H16D, S39K, S41G, L43K, Q76D, S79A, I82V
B6: ACTN14: activin A variant peptide, SEQ ID 15 (protein)
chain: B1 chain with Y10L, S39R, S41D, S75A, I82V
B7: ACTN8: activin A variant peptide, SEQ ID 9 (protein)
chain: B1 chain with H16D, S39K, L43K, Q76D, I82V
B8: ACTN21: activin A variant peptide, SEQ ID 22 (protein)
chain: B1 chain with H16W, S39K, L43K, S75A, Q76N
B9: ACTN11: activin A variant peptide, SEQ ID 12 (protein)
chain: B1 chain with Y10L, H16L, S39H, S75A, S79A
B10: ACTN12: activin A variant peptide, SEQ ID 13 (protein)
chain: B1 chain with H16N, S39E
B11: ACTN18: activin A variant peptide, SEQ ID 19 (protein)
chain: B1 chain with H16N, S39K, L43K, Q76D, S79A
B12: ACTN10: activin A variant peptide, SEQ ID 11 (protein)
chain: B1 chain with H16D, S39R, S75A
B13: ACTN51: activin A variant peptide, SEQ ID 52 (protein)
chain: GLECDGKVNICCKKQSFGQTKDIGWNDWIIAPSGYHGGGCSGECPSHIAGTSGSSLSFHSTVINHYRMRGHSPFANLKSCCSPTKLRPMSMLYYDDGQNIIKKDIQRMVVEECGCT
B14: ACTN56: activin A variant peptide, SEQ ID 57 (protein)
chain: B13 chain with T20A, G39S, S41T, S82A, R107N, T116V
B15: ACTN65: activin A variant peptide, SEQ ID 66 (protein)
chain: B13 chain with G39S, R107G, V109K
B16: ACTN94: activin A variant peptide, SEQ ID 95 (protein)
chain: B13 chain with T20A, S41T, F74W, V110A
B17: ACTN77: activin A variant peptide, SEQ ID 78 (protein)
chain: B13 chain with S16M, Q19K, T20A, S41T, F74W, R107N
B18: ACTN69: activin A variant peptide, SEQ ID 70 (protein)
chain: B13 chain with Q19K, S41T, R107Q
B19: ACTN81: activin A variant peptide, SEQ ID 82 (protein)
chain: B13 chain with S16L, Q19K, S41T, F74V
B20: ACTN91: activin A variant peptide, SEQ ID 92 (protein)
chain: B13 chain with Q19R, F74W, R107N

Test system: H1 or H9 human embryonic stem cells
Test: Activin A bioassay: differentiation of human embryonic stem cells to definitive endoderm, cell number and SOX17 intensity by high content analysis (96-well, four days);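 as to Cell Number average: Raw total cell count per well from high content imaging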;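 as to Sox 17 Intensity average: total fluorescence of the cell multiplied by cell area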
Type: cell-based
Conditions: supernatant concentration 1x, assay dilution 1:20
Summary of the method: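 Read-out was cell count and integrated SOX17 immunofluorescence by high-content imaging, with each well divided by the mean of the 100 ng/ml activin A control. Over the four-day culture, test samples were given in DMEM:F12 with 0.5% FCS plus 20 ng/ml Wnt3a for the first two days and in 2% FCS alone for the last two. Cells were H1 or H9 hESC clusters grown on Matrigel.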

Going from B1 to B2, the “Cell Number average” value rises from 1133 to 9000.

First: B3
Second: B4
The “Cell Number average” value of the first is lower: 11017 for the first, 11391 for the second.

Compared with B5, B6 is lower in “Cell Number average” value: 10154 for the first, 4968 for the second.

First: B7
Second: B8
The “Cell Number average” value of the first is lower: 363 for the first, 8072 for the second.

Compared with B9, B10 is higher in “Cell Number average” value: 5239 for the first, 5420 for the second.

Compared with B11, B12 is higher in “Cell Number average” value: 6078 for the first, 7417 for the second.

First: B1
Second: B2
The “Sox 17 Intensity average” value of the first is higher: 1.108E+07 for the first, 1.26E+04 for the second.

Compared with B3, B4 is higher in “Sox 17 Intensity average” value: 4.09E+04 for the first, 5.97E+05 for the second.

Compared with B5, B6 is higher in “Sox 17 Intensity average” value: 1.21E+06 for the first, 1.50E+06 for the second.

First: B7
Second: B8
The “Sox 17 Intensity average” value of the first is higher: 5.578E+06 for the first, 6.33E+03 for the second.

Going from B9 to B10, the “Sox 17 Intensity average” value falls from 3.47E+06 to 1.10E+06.

Going from B11 to B12, the “Sox 17 Intensity average” value rises from 5.68E+05 to 7.52E+05.

Same assay, conditions: supernatant concentration 1x, assay dilution 1:20; control = R&D Sys Activin A 100 ng/ml on same plate

Going from B1 to B2, the “Sox 17 Intensity % of control” value falls from 6.0% to 0.0%.

Compared with B3, B4 is higher in “Sox 17 Intensity % of control” value: 0.1% for the first, 2.3% for the second.

Going from B5 to B6, the “Sox 17 Intensity % of control” value rises from 4.7% to 5.8%.

Going from B7 to B8, the “Sox 17 Intensity % of control” value falls from 3.0% to 0.0%.

Compared with B9, B10 is lower in “Sox 17 Intensity % of control” value: 13.4% for the first, 4.3% for the second.

Compared with B11, B12 is higher in “Sox 17 Intensity % of control” value: 2.2% for the first, 2.9% for the second.

Same assay, conditions: supernatant concentration 10x, assay dilution 1:20

First: B1
Second: B2
The “Cell Number average” value of the first is lower: 2714 for the first, 10217 for the second.

First: B3
Second: B4
The “Cell Number average” value of the first is higher: 11587 for the first, 11456 for the second.

Going from B5 to B6, the “Cell Number average” value falls from 12596 to 6278.

First: B7
Second: B8
The “Cell Number average” value of the first is lower: 1419 for the first, 11102 for the second.

First: B9
Second: B10
The “Cell Number average” value of the first is higher: 10321 for the first, 6633 for the second.

Compared with B11, B12 is lower in “Cell Number average” value: 9676 for the first, 8942 for the second.

Going from B1 to B2, the “Sox 17 Intensity average” value falls from 1.904E+07 to 1.52E+05.

Going from B3 to B4, the “Sox 17 Intensity average” value rises from 3.96E+04 to 6.63E+05.

First: B5
Second: B6
The “Sox 17 Intensity average” value of the first is lower: 2.83E+05 for the first, 3.66E+06 for the second.

Going from B7 to B8, the “Sox 17 Intensity average” value falls from 1.181E+07 to 4.89E+05.

Going from B9 to B10, the “Sox 17 Intensity average” value falls from 4.06E+07 to 7.65E+06.

Going from B11 to B12, the “Sox 17 Intensity average” value falls from 1.22E+06 to 1.08E+06.

Same assay, conditions: supernatant concentration 10x, assay dilution 1:20; assay plates #007, #009, #010

Going from B13 to B14, the “Cell Number average” value rises from 21780 to 23413.

First: B15
Second: B16
The “Cell Number average” value of the first is higher: 22058 for the first, 20142 for the second.

Going from B17 to B18, the “Cell Number average” value rises from 17696 to 20178.

First: B19
Second: B20
The “Cell Number average” value of the first is higher: 19897 for the first, 17043 for the second.

Going from B13 to B14, the “Sox 17 Intensity average” value rises from 1.85E+07 to 2.79E+07.

Compared with B15, B16 is lower in “Sox 17 Intensity average” value: 3.23E+07 for the first, 1.51E+07 for the second.

Going from B17 to B18, the “Sox 17 Intensity average” value falls from 2.82E+07 to 2.73E+07.

Going from B19 to B20, the “Sox 17 Intensity average” value falls from 1.60E+07 to 1.12E+07.

Same assay, conditions: supernatant concentration 10x, assay dilution 1:20; control = R&D Sys Activin A 100 ng/ml on same plate

Compared with B1, B2 is lower in “Sox 17 Intensity % of control” value: 10.4% for the first, 0.5% for the second.

First: B3
Second: B4
The “Sox 17 Intensity % of control” value of the first is lower: 0.1% for the first, 2.6% for the second.

Going from B5 to B6, the “Sox 17 Intensity % of control” value rises from 1.1% to 14.1%.

First: B7
Second: B8
The “Sox 17 Intensity % of control” value of the first is higher: 6.4% for the first, 1.7% for the second.

Going from B9 to B10, the “Sox 17 Intensity % of control” value falls from 156.8% to 29.6%.

Going from B11 to B12, the “Sox 17 Intensity % of control” value falls from 4.7% to 4.2%.

First: B13
Second: B14
The “Sox 17 Intensity % of control” value of the first is lower: 13.1% for the first, 19.8% for the second.

Compared with B15, B16 is lower in “Sox 17 Intensity % of control” value: 22.9% for the first, 10.7% for the second.

Compared with B17, B18 is lower in “Sox 17 Intensity % of control” value: 20.0% for the first, 19.4% for the second.

Compared with B19, B20 is lower in “Sox 17 Intensity % of control” value: 11.4% for the first, 7.9% for the second.

Same assay, conditions: supernatant concentration 10x, assay dilution 1:40

Going from B1 to B2, the “Cell Number average” value rises from 1387 to 12284.

Compared with B3, B4 is lower in “Cell Number average” value: 12549 for the first, 9608 for the second.

First: B5
Second: B6
The “Cell Number average” value of the first is higher: 10807 for the first, 5584 for the second.

Compared with B7, B8 is higher in “Cell Number average” value: 372 for the first, 10458 for the second.

First: B9
Second: B10
The “Cell Number average” value of the first is higher: 9493 for the first, 6317 for the second.

Compared with B11, B12 is lower in “Cell Number average” value: 11683 for the first, 7333 for the second.

Going from B1 to B2, the “Sox 17 Intensity average” value falls from 1.099E+07 to 9.03E+03.

Compared with B3, B4 is higher in “Sox 17 Intensity average” value: 4.86E+03 for the first, 4.19E+05 for the second.

Going from B5 to B6, the “Sox 17 Intensity average” value rises from 4.38E+05 to 4.73E+06.

Going from B7 to B8, the “Sox 17 Intensity average” value falls from 3.869E+06 to 8.77E+04.

Compared with B9, B10 is lower in “Sox 17 Intensity average” value: 2.79E+07 for the first, 2.43E+06 for the second.

First: B11
Second: B12
The “Sox 17 Intensity average” value of the first is lower: 2.22E+05 for the first, 5.59E+05 for the second.

Same assay, conditions: supernatant concentration 10x, assay dilution 1:40; control = R&D Sys Activin A 100 ng/ml on same plate

First: B1
Second: B2
The “Sox 17 Intensity % of control” value of the first is higher: 6.0% for the first, 0.0% for the second.

Going from B3 to B4, the “Sox 17 Intensity % of control” value rises from 0.0% to 1.6%.

Going from B5 to B6, the “Sox 17 Intensity % of control” value rises from 1.7% to 18.3%.

Going from B7 to B8, the “Sox 17 Intensity % of control” value falls from 2.1% to 0.3%.

First: B9
Second: B10
The “Sox 17 Intensity % of control” value of the first is higher: 107.8% for the first, 9.4% for the second.

Going from B11 to B12, the “Sox 17 Intensity % of control” value rises from 0.9% to 2.2%.
